Measurements from US20250109177A1 (BROAD INSTITUTE, published 2025).
Where no end group is shown, it is not given here.

What was measured:
[1] = biological target: T1, DDB1·CRBN precomplexed with PT-179 (human, UniProt Q96SW2 1-442; Q16531 1-1140); test: BLI, immobilized MBP-degron; ratio of the KD values
[2] = biological target: T1, DDB1·CRBN precomplexed with PT-179; test: BLI, immobilized MBP-degron, DDB1·CRBN precomplexed with PT-179
[3] = biological target: T2, DDB1·CRBN precomplexed with pomalidomide (human, UniProt Q96SW2 1-442; Q16531 1-1140); test: BLI, immobilized MBP-degron, DDB1·CRBN precomplexed with pomalidomide
T2 construct: also called CRBN·pomalidomide
T2 sequence (Q96SW2 whole entry, chain 1 of 2): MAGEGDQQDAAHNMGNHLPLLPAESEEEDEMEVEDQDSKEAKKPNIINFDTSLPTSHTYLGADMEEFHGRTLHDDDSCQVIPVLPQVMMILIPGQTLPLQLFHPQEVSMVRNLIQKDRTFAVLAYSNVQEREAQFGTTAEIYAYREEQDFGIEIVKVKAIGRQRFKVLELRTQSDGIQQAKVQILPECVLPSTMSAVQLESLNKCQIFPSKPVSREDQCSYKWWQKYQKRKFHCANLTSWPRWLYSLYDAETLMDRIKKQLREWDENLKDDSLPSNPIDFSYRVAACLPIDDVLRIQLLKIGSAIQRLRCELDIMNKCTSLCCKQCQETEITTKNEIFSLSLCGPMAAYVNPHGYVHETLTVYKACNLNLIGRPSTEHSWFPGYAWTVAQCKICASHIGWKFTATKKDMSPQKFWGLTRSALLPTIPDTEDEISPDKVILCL
T2 sequence (Q16531 whole entry, chain 2 of 2): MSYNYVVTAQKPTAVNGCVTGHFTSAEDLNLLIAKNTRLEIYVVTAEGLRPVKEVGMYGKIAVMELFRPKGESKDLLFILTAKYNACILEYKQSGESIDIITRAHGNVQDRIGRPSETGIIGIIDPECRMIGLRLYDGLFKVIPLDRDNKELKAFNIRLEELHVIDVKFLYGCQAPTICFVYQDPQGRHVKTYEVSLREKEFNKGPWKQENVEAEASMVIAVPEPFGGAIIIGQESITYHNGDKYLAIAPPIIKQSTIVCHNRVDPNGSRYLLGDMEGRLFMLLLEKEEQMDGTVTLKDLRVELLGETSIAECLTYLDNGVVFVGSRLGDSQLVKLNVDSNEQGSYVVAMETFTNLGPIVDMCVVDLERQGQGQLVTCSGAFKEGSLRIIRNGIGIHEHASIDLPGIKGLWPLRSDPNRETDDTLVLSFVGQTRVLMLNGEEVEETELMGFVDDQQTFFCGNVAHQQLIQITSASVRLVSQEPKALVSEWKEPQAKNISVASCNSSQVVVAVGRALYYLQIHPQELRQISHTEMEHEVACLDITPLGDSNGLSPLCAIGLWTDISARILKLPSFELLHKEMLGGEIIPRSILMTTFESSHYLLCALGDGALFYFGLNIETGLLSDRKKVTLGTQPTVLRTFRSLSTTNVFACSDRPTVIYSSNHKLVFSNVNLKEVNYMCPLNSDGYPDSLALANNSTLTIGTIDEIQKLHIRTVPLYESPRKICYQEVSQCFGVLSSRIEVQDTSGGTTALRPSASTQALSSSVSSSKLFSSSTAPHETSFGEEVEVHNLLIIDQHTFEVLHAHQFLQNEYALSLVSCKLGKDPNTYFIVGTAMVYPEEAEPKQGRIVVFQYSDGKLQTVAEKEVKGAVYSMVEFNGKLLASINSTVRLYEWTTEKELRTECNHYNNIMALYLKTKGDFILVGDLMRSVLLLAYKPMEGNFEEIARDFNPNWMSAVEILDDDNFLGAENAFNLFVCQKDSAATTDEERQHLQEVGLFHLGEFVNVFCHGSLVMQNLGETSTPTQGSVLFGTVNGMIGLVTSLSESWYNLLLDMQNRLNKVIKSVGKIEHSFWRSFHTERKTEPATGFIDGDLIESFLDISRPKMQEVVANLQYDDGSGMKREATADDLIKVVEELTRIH

[4] = biological target: T1, DDB1·CRBN precomplexed with PT-179; test: bio-layer interferometry, immobilized MBP-degron, DDB1·CRBN precomplexed with PT-179
[5] = biological target: T2, DDB1·CRBN precomplexed with pomalidomide; test: bio-layer interferometry, immobilized MBP-degron, DDB1·CRBN precomplexed with pomalidomide

T1 sequence (Q96SW2 whole entry, chain 1 of 2): as the sequence (Q96SW2 whole entry, chain 1 of 2) above
T1 sequence (Q16531 whole entry, chain 2 of 2): as the sequence (Q16531 whole entry, chain 2 of 2) above

fold preference for CRBN precomplexed with PT-179 over CRBN precomplexed with pomalidomide [1] [fold]	Kd [2] [µM]	Kd [3] [µM]	koff [4] [s⁻¹]	kon [4] [M⁻¹ s⁻¹]	koff [5] [s⁻¹]	kon [5] [M⁻¹ s⁻¹]	Binder
2.4	0.123	0.295	0.00528	42900	0.0161	54600	LLLFCPICGFTCRQKGNLLRHINLHTGEKLFKYHLY (designed binder, not shown: large carriers, cysteine pairing not given here; also: fused to maltose binding protein, limits and linker not given here, Expressed and purified from E. coli, immobilized for BLI; also called MBP-degron) [MBP-SD40 (minimal evolved degron SD40 fused to maltose binding protein)]
–	–	0.217	–	–	0.0509	235000	MBP-SD0 (super degron SD0 fused to maltose binding protein) (designed binder, not shown: large carriers, also called MBP-degron) FNVLMVHKRSHTGERPLQCEICGFTCRQKGNLLRHIKLHTGEKPFKCHLCNYACQRRDAL
